Experimental data published in PMC4408115.

Molecular target: SPbCZ5: leucine zipper-GGSG-LucY (from A235)-…-Avi-tag (Geobacillus species)
Assay: split reporter (BiFC, NanoBiT); LucY protein-fragment complementation: LucY fragments fused to antiparallel leucine zippers, co-expressed in E. cloni 10G (E. coli), 16-18 h at 37°C; whole-cell fluorescence in PBS (excitation 485 nm, emission 528 nm) as percent of CZ (zipper fused to whole LucY)

fluorescence, percent of CZ control (% of CZ control): 33
Substance: SPbNZ5: His6-LucY (to H234)-GGSGSS-leucine zipper
